This passage reports Km results from publication PMC6598382.

Substrate in data set [1]: C/C=C/C=C/C(=O)c1cc(C)c(O)c(C)c1O
Kind of data set: steady-state Michaelis-Menten kinetics. It is filed as biochemical, Penicillium rubens. Particulars: native substrate.

Substrate in data set [2]: C/C=C/COC(=O)c1cc(C)c(O)c(C)c1O
Description: steady-state Michaelis-Menten kinetics. The format is biochemical, Penicillium rubens.

B1: SorbC (Penicillium rubens Wisconsin 54-1255) (protein)
chain: MTRSANSPFEVAIVGGGITGLALAVGLLKRNVSFTIYERAENFGELGVGITFTPNAQRAMEALDPCVLQSFTNVASAPSGGTINFVDGVREQGSEDPRTSTAALLFQLHVKGGYKACRRCDFVDQIVQHIPKDCVQYRKWLDSIETDHESGRAVLKFRDGEIAHADVVIGCDGIRSQVRASMFGTDELCPRAQYSHQLGYRGMVPLAQATAVLGPEKTSSAVLHTGPGAFVLTIPLAEVHAMHIEAFIMDKEEWPEVQTSSDSKRYVLPATRNEATKAFAEFGPTVRSAVSMFPEKLEKWAVFDMLEAPVPTFAKGRVCLAGDAAHASTPNQGGGAGFGIEDALVLAEVLAVLAEAPNVSGIVASEALAVYSEVRYERSQWLVRSSRRTGELCTWKDRDWGLAAEELSRDIISRSHQLWDHDTAGMVSDALAILGERVRGADTAF
As for B1, the Km in data set [1] amounted to 38.6 ± 1.7 µM; in data set [2], 17.3 ± 0.7 µM.
